Measured values reported in the supplement of paper PMC6757056.
± gives the standard deviation of the averaged measurements.

B1: library; a variant is named by its letters at N, in order (parent)
chain: GCUGUCACCGGUGCUUGGUACGUUAUAUUCAGCCGGUCUGAUGAGUCUNNNNNNAGACGAAACAGC

What was measured:
[1] = variants of: B1; experiment: normalized RNA/DNA level without ligand (relative to sTRSVctl = 100) (log10 (% of sTRSVctl)); HEK293T overexpressing SLC46A1; higher = less ribozyme self-cleavage, higher mRNA level; conditions: without (6R,S)-folinic acid; ligand present: no
Summary of the method: (§1)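 Only sequences with at least 100 DNA reads were analyzed, from HEK293T cells transfected with 4 µg per 6-well well of ribozyme switch library plasmids 72 h before RNA extraction with EDTA. Any ligand was added 1 h before transfection. RNA level was defined as RNA over DNA reads, normalized to a spiked-in non-cleaving sequence or to the top sequences, then scaled and log-transformed. The top set was 25 sequences, and the scaling was ×100 followed by log10.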

[2] = variants of: B1; experiment: normalized RNA/DNA level with ligand (relative to sTRSVctl = 100) (log10 (% of sTRSVctl)); HEK293T overexpressing SLC46A1; ligand concentration (+) RNA-Seq: 6 mM; higher = less ribozyme self-cleavage, higher mRNA level; conditions: with (6R,S)-folinic acid; ligand present: yes
Summary of the method: as §1

Row | Variant | normalized RNA/DNA level without ligand (log10) [1] | normalized RNA/DNA level with ligand (log10) [2]
1 | UCAAUU | 2.013 ± 0.011 | 2.02 ± 0.014
2 | UCAAUA | 1.9534 ± 0.0012 | 1.98 ± 0.031
3 | UCAAUC | 2.074 ± 0.0092 | 2.06 ± 0.048
4 | CCAAUC | 2.028 ± 0.018 | 1.99 ± 0.049
5 | CCAAUA | 1.994 ± 0.0075 | 2 ± 0.036
6 | CCAAUU | 2.039 ± 0.0021 | 2.05 ± 0.037
7 | CCAAUG | 1.998 ± 0.0065 | 2.022 ± 0.019
8 | AAUGUA | 1.9489 ± 1.8e-05 | 2.01 ± 0.04
9 | AAUGUU | 1.972 ± 0.0068 | 1.993 ± 0.0074
10 | AAUGUG | 1.81 ± 0.0053 | 1.999 ± 0.013
11 | ACACGC | 1.981 ± 0.015 | 1.99 ± 0.049
12 | ACACGG | 1.934 ± 0.013 | 2.02 ± 0.04
13 | ACACGU | 2.023 ± 0.013 | 2.03 ± 0.022
14 | ACAAAA | 1.97 ± 0.0049 | 1.99 ± 0.033
15 | ACAAAU | 1.952 ± 0.015 | 2.01 ± 0.053
16 | AAUGCC | 2.026 ± 0.012 | 2.03 ± 0.03
17 | AAUGCU | 2.022 ± 0.01 | 2.02 ± 0.045
18 | UAUGUU | 1.95 ± 0.022 | 2 ± 0.023
19 | UAUGUA | 1.8903 ± 0.0016 | 1.99 ± 0.057
20 | UAUGUC | 2.05 ± 0.033 | 2.01 ± 0.049
21 | GAUUCC | 2.064 ± 0.0098 | 2.043 ± 0.019
22 | GAUUCG | 1.978 ± 0.0021 | 2.01 ± 0.042
23 | GAUUUC | 2.055 ± 0.017 | 2 ± 0.03

Row | Variant | normalized RNA/DNA level without ligand (log10) [1] | normalized RNA/DNA level with ligand (log10) [2]
24 | GAUUUG | 1.95 ± 0.023 | 2.03 ± 0.047
25 | GAUUUU | 2.011 ± 0.0062 | 2.026 ± 0.0072
26 | AAUCGA | 1.974 ± 0.019 | 2 ± 0.029
27 | AAUCGU | 1.99 ± 0.0073 | 2.013 ± 0.0078
28 | AAUGAU | 1.937 ± 0.012 | 2 ± 0.051
29 | AAUGAC | 1.9695 ± 0.0006 | 1.99 ± 0.037
30 | CAUCGA | 2.045 ± 0.0027 | 2.06 ± 0.026
31 | CAUCGG | 1.99 ± 0.024 | 2.02 ± 0.026
32 | CAUCGU | 2.05 ± 0.021 | 2.02 ± 0.025
33 | CAUGCA | 1.996 ± 0.0096 | 2.01 ± 0.022
34 | CAUGCC | 2.058 ± 0.0046 | 2.029 ± 0.014
35 | CAUGCG | 2.01 ± 0.019 | 2.01 ± 0.032
36 | CAUGCU | 2.051 ± 0.019 | 2.05 ± 0.064
37 | ACAACG | 1.991 ± 0.019 | 2.06 ± 0.021
38 | ACAACU | 2.014 ± 0.0094 | 2.03 ± 0.045
39 | ACAACC | 2.035 ± 0.0087 | 2.03 ± 0.025
40 | GAUCCC | 2.06 ± 0.033 | 2.0517 ± 0.00022
41 | GAUCCG | 2.0564 ± 0.0019 | 2.05 ± 0.063
42 | GAUCCU | 2.066 ± 0.02 | 2.06 ± 0.053
43 | GAUCCA | 2.034 ± 0.0061 | 2.02 ± 0.039
44 | UCACGU | 1.98 ± 0.036 | 2.01 ± 0.03
45 | UCACGC | 2.036 ± 0.0036 | 1.97 ± 0.023
46 | UCACGG | 1.965 ± 0.019 | 2 ± 0.043

Row | Variant | normalized RNA/DNA level without ligand (log10) [1] | normalized RNA/DNA level with ligand (log10) [2]
47 | UCACGA | 2.019 ± 0.0037 | 2.03 ± 0.028
48 | UAUGCC | 1.995 ± 0.0025 | 1.99 ± 0.04
49 | UAUGCA | 1.95 ± 0.027 | 2.01 ± 0.021
50 | AAUUGC | 2.006 ± 0.0074 | 2.01 ± 0.039
51 | AAUUAA | 1.95 ± 0.021 | 1.98 ± 0.025
52 | AAUUAU | 1.983 ± 0.013 | 2.03 ± 0.038
53 | AAUUAG | 1.94 ± 0.0025 | 2.01 ± 0.027
54 | AAUUAC | 1.982 ± 0.0057 | 2.01 ± 0.026
55 | AAUGGC | 1.997 ± 0.012 | 2.029 ± 0.019
56 | AAUGGA | 1.925 ± 0.0083 | 1.99 ± 0.033
57 | UAUCGA | 1.927 ± 0.0098 | 2 ± 0.028
58 | UAUCGU | 1.947 ± 0.0084 | 2.01 ± 0.038
59 | UAUCGC | 2.014 ± 0.0075 | 2.03 ± 0.043
60 | GCAACC | 2.033 ± 0.0054 | 2.019 ± 0.019
61 | GCAACA | 2.058 ± 0.0047 | 2.05 ± 0.038
62 | GCAACG | 1.982 ± 0.0082 | 2.014 ± 0.02
63 | GCACUG | 2 ± 0.024 | 2.02 ± 0.056
64 | GCACUA | 2.019 ± 0.018 | 2.01 ± 0.022
65 | GCACUC | 2.022 ± 0.0041 | 2.022 ± 0.0086
66 | GCACUU | 2.001 ± 0.017 | 2.01 ± 0.021
67 | CCAGAA | 1.982 ± 0.0051 | 1.98 ± 0.053
68 | CAUCUA | 2.05 ± 0.022 | 2.074 ± 0.012
69 | CAUCUG | 2.03 ± 0.032 | 2.02 ± 0.025

Row | Variant | normalized RNA/DNA level without ligand (log10) [1] | normalized RNA/DNA level with ligand (log10) [2]
70 | CAUCUU | 2.034 ± 0.0024 | 2 ± 0.038
71 | GAUGGA | 1.987 ± 0.0081 | 2.02 ± 0.043
72 | GAUGGG | 1.941 ± 0.0096 | 2.043 ± 0.019
73 | CCACCC | 2.038 ± 0.011 | 1.994 ± 0.014
74 | CCACCU | 2.101 ± 0.015 | 2.07 ± 0.033
75 | CCACCA | 2.044 ± 0.012 | 2.01 ± 0.041
76 | CCACCG | 2.007 ± 0.018 | 2.01 ± 0.054
77 | GCAAUU | 2.039 ± 0.01 | 2.04 ± 0.042
78 | GCAAUA | 2.014 ± 0.013 | 2.03 ± 0.026
79 | GCAAUC | 2.03 ± 0.02 | 2.03 ± 0.038
80 | GCAAUG | 1.98 ± 0.0061 | 2.033 ± 0.0084
81 | UCACAG | 1.9 ± 0.0082 | 1.979 ± 0.012
82 | UCACAA | 1.982 ± 0.017 | 1.98 ± 0.025
83 | UCACAC | 2.048 ± 0.015 | 2.023 ± 0.016
84 | UCACAU | 1.986 ± 0.0076 | 2.02 ± 0.048
85 | CAUAGU | 2.003 ± 0.013 | 2.025 ± 0.0053
86 | CCACUA | 2.018 ± 0.0041 | 2.02 ± 0.015
87 | CCACUC | 1.9795 ± 0.0011 | 2.008 ± 0.02
88 | CCACUG | 2.02 ± 0.041 | 2.074 ± 0.018
89 | GCACGA | 2.029 ± 0.005 | 2.03 ± 0.038
90 | GCACGU | 1.99 ± 0.02 | 2.01 ± 0.023
91 | GCACGC | 2.025 ± 0.0075 | 2.024 ± 0.02
92 | GCACGG | 1.997 ± 0.016 | 2.006 ± 0.018

Row | Variant | normalized RNA/DNA level without ligand (log10) [1] | normalized RNA/DNA level with ligand (log10) [2]
93 | ACAAUU | 2.018 ± 0.0076 | 2.044 ± 0.018
94 | ACAAUC | 2.043 ± 0.01 | 2.03 ± 0.031
95 | CCAACG | 2.0184 ± 0.002 | 2.01 ± 0.041
96 | CCAACC | 2.027 ± 0.016 | 1.99 ± 0.042
97 | CCAACA | 2.033 ± 0.011 | 2 ± 0.047
98 | CCAACU | 2.049 ± 0.0064 | 2.053 ± 0.02
99 | AAUUUC | 2.031 ± 0.0025 | 2.01 ± 0.049
100 | AAUUUA | 1.966 ± 0.012 | 1.99 ± 0.02
101 | GAUCGC | 1.998 ± 0.016 | 2.032 ± 0.014
102 | GAUCGA | 2.033 ± 0.008 | 2.02 ± 0.036
103 | GAUCGG | 2.084 ± 0.015 | 2.07 ± 0.04
104 | GAUCGU | 2.02 ± 9.8e-05 | 2.02 ± 0.052
105 | GCAAAC | 1.974 ± 0.0046 | 2.02 ± 0.023
106 | GCAAAG | 1.95 ± 0.0068 | 2.018 ± 0.012
107 | GCAAAU | 2 ± 0.022 | 2.03 ± 0.03
108 | UAUUAU | 1.931 ± 0.012 | 1.985 ± 0.01
109 | UAUGAA | 1.873 ± 0.016 | 1.98 ± 0.023
110 | UCAACG | 1.909 ± 0.0028 | 2 ± 0.034
111 | UCAACA | 1.987 ± 0.0049 | 2.017 ± 0.018
112 | CAUCCC | 2.063 ± 0.0042 | 2.041 ± 0.011
113 | CAUCCU | 2.06 ± 0.013 | 2.08 ± 0.058
114 | CAUCCG | 2.083 ± 0.013 | 2.05 ± 0.028
115 | CAUCCA | 2.028 ± 0.006 | 1.99 ± 0.036
